The text below walks through data of patent US20240316154A1 (Eli Lilly, published 2024).

B1: VHH moiety 26 (MC6.1C22-L104T) (VHH)
VHH: EVQLLESGGGLVQPGGSLRLSCAASGRYIDETAVAWFRQAPGKEREFVAGIGGGVDITYYADSVKGRFTISRDNSKNTLYLQMNSLRPEDTAVYYCAARPGRPTITSKVADLYPYWGQGTLVTVSS
B2: VHH moiety 24 (MC6.1C22-L104G) (VHH)
VHH: B1 VHH with T104G
B3: VHH moiety 13 (MC6.1C22-Y59E) (VHH)
VHH: B1 VHH with Y59E, T104L
B4: VHH moiety 20 (MC6.1C22-P103) (VHH)
VHH: B1 VHH with P103E, T104L
notes: name printed without the new residue
B5: VHH moiety 23 (MC6.1C22-L104E) (VHH)
VHH: B1 VHH with T104E
B6: VHH moiety 14 (MC6.1C22-Y59Q) (VHH)
VHH: B1 VHH with Y59Q, T104L
B7: VHH moiety 25 (MC6.1C22-L104Q) (VHH)
VHH: B1 VHH with T104Q
B8: VHH moiety 12 (MC6.1C22-Y59A) (VHH)
VHH: B1 VHH with Y59A, T104L
B9: VHH moiety 16 (MC6.1C22-Y59T) (VHH)
VHH: B1 VHH with Y59T, T104L
B10: VHH moiety 15 (MC6.1C22-Y59S) (VHH)
VHH: B1 VHH with Y59S, T104L
B11: VHH moiety 11 (MC6.1C22-157Q) (VHH)
VHH: B1 VHH with I57Q, T104L
notes: name printed as 157Q
B12: VHH moiety 18 (MC6.1C22-R102Q) (VHH)
VHH: B1 VHH with R102Q, T104L
B13: VHH moiety 19 (MC6.1C22-R102S) (VHH)
VHH: B1 VHH with R102S, T104L
B14: VHH moiety 10 (MC6.1C22-157E) (VHH)
VHH: B1 VHH with I57E, T104L
notes: name printed as 157E
B15: VHH moiety 4 (MC6.1C80.43) (VHH)
VHH: B1 VHH with E44G, T104L
B16: VHH moiety 9 (MC6.1C22-R27A) (VHH)
VHH: B1 VHH with R27A, T104L
B17: VHH moiety 39 (MC6.1C90.43) (VHH)
VHH: B1 VHH with E44G, A97G, T104L
B18: VHH moiety 22 (MC6.1C22-P103S) (VHH)
VHH: B1 VHH with P103S, T104L
B19: VHH moiety 40 (MC6.1C95.43) (VHH)
VHH: B1 VHH with E44G, A97G, A98T, T104L
B20: VHH moiety 21 (MC6.1C22-P103Q) (VHH)
VHH: B1 VHH with P103Q, T104L

As a reminder, the koff is the rate constant with which the complex falls apart.

Where a chain is given by its changes, count along the chain named. Names may count otherwise.

The first test has as its target T1, Cynomolgus monkey serum albumin (cynomolgus monkey, UniProt A2V9Z4 25-608).
T1 construct: bought; immobilised on a CM5 chip by amine coupling; also called Cyno SA
The test can be described thus: SPR, SA on chip, 25 C.
For B1, the binding result is given as “no binding (tested: 300 nM)”.
B2: the binding result was “no binding (tested: 300 nM)”.
Take B3: the binding result is recorded as “no binding (tested: 300 nM)”.
With B4, the binding result is given as “no binding (tested: 300 nM)”.
As for B5, the binding result is given as “no binding (tested: 300 nM)”.
For the molecule B6, the binding result is reported as “no binding (tested: 300 nM)”.
Regarding B7, the binding result is reported as “no binding (tested: 300 nM)”.

The target of the next test is T2, Mouse serum albumin (mouse, UniProt P07724 25-608).
T2 construct: bought; immobilised on a CM5 chip by amine coupling; also called Mouse SA
The test can be described thus: SPR, SA on chip, 25 C. On the technique in general: Surface plasmon resonance follows binding to a sensor surface in real time, without labels.
Turning to B8, the binding result is “no binding (tested: 300 nM)”.
Consider B9, for which the binding result is “no binding (tested: 300 nM)”.
On to B1, for which the binding result is recorded as “no binding (tested: 300 nM)”.
Take B2: the binding result was “no binding (tested: 300 nM)”.
Consider B10, for which the binding result was “no binding (tested: 300 nM)”.
For B3, the binding result is “no binding (tested: 300 nM)”.
As to B4, the binding result was “no binding (tested: 300 nM)”.
Same read-out and setting: the result for B5 reads “no binding (tested: 300 nM)”.
With B6, the binding result is given as “no binding (tested: 300 nM)”.
As for B11, the binding result was “no binding (tested: 300 nM)”.

The target in a further test is T3, Rat serum albumin (rat, UniProt P02770 25-608).
T3 construct: bought; immobilised on a CM5 chip by amine coupling; also called Rat SA
The test can be described thus: SPR, SA on chip, 25 C.
Regarding B8, the binding result was “no binding (tested: 300 nM)”.
Consider B9, for which the binding result was “no binding (tested: 300 nM)”.
Consider B1, for which the binding result is “no binding (tested: 300 nM)”.
In the case of B2, the binding result was “no binding (tested: 300 nM)”.
With B10, the binding result is on record as “no binding (tested: 300 nM)”.
Turning to B3, the binding result is “no binding (tested: 300 nM)”.
As for B4, the binding result is on record as “no binding (tested: 300 nM)”.
Still for that read-out and setting: for B5 the value was “no binding (tested: 300 nM)”; for B6, “no binding (tested: 300 nM)”; for B11, “no binding (tested: 300 nM)”.

In another test the target is T4, Pig serum albumin (pig, UniProt P08835 25-607).
T4 construct: bought; immobilised on a CM5 chip by amine coupling; also called Pig SA
The test can be described thus: SPR, SA on chip, 25 C.
On to B8, for which the binding result is given as “no binding (tested: 300 nM)”.
As to B9, the binding result was “no binding (tested: 300 nM)”.
Take B1: the binding result is “no binding (tested: 300 nM)”.
Regarding B2, the binding result is given as “no binding (tested: 300 nM)”.
Regarding B10, the binding result was “no binding (tested: 300 nM)”.
As to B3, the binding result is “no binding (tested: 300 nM)”.
The same measure, in the same setting: the result for B4 reads “no binding (tested: 300 nM)”; that for B5, “no binding (tested: 300 nM)”; that for B6, “no binding (tested: 300 nM)”.
Turning to B11, the binding result is recorded as “no binding (tested: 300 nM)”.

The next test addresses T5, Dog serum albumin (dog, UniProt P49822 25-608).
T5 construct: bought; immobilised on a CM5 chip by amine coupling; also called Dog SA
Briefly: SPR, SA on chip, 25 C.
For the molecule B8, the binding result is “no binding (tested: 300 nM)”.
For the molecule B1, the binding result was “no binding (tested: 300 nM)”.
In the case of B2, the binding result is given as “no binding (tested: 300 nM)”.
B10: the binding result was “no binding (tested: 300 nM)”.
Same read-out and setting: the result for B3 reads “no binding (tested: 300 nM)”.
Regarding B5, the binding result was “no binding (tested: 300 nM)”.
B6: the binding result is given as “no binding (tested: 300 nM)”.
As to B11, the binding result was “no binding (tested: 300 nM)”.

The next test has as its target T6, Cow serum albumin (cow, UniProt P02769 25-607).
T6 construct: bought; immobilised on a CM5 chip by amine coupling; also called Cow SA
The test can be described thus: SPR, SA on chip, 25 C.
For the molecule B8, the binding result is “no binding (tested: 300 nM)”.
In the case of B9, the binding result is given as “no binding (tested: 300 nM)”.
The same measure, in the same setting: the result for B1 reads “no binding (tested: 300 nM)”; that for B10, “no binding (tested: 300 nM)”.
The same measure, in the same setting: the result for B3 reads “no binding (tested: 300 nM)”; that for B12, “no binding (tested: 300 nM)”; that for B4, “no binding (tested: 300 nM)”.
For the molecule B13, the binding result is recorded as “no binding (tested: 300 nM)”.
With B6, the binding result is reported as “no binding (tested: 300 nM)”.
In the case of B14, the binding result is reported as “no binding (tested: 300 nM)”.
For the molecule B7, the binding result was “no binding (tested: 300 nM)”.
As to B11, the binding result was “no binding (tested: 300 nM)”.

In a further test the target is T7, Human serum albumin (human, UniProt P02768 25-609).
T7 construct: bought; immobilised on a CM5 chip by amine coupling; also called Human SA
The test can be described thus: SPR, SA on chip, VHH 300 nM, 25 C.
Description: (§1) Immobilization of SA to a Series S Sensor Chip CM5 surface is performed according to the manufacturer's instructions (amine coupling kit BR-1000-50). […] Human SA is obtained from Sigma Aldrich (St. Louis, MO; Cat. No. A8763). […] Mouse SA is obtained from Sigma Aldrich (Cat. No. A3559). Rat SA is obtained from Sigma Aldrich (Cat. No. A4538). Pig SA is obtained from Sigma Aldrich (Cat. No. A4414). […] Cow SA is obtained from Sigma Aldrich (Cat. No. A7030). The various SAs are covalently immobilized through free amines onto a carboxymethyl dextran-coated sensor chip CM5 targeting a surface density of average approximately 77 (58-98) RU. Excess reactive groups on the surfaces (flow cell 1 and 2) are deactivated by injecting 70 μL of 1 M ethanolamine hydrochloride-NaOH, pH 8.5, at 10 μL/min.
(§2) VHH moieties are diluted in HBS-EP+buffer (10 mM HEPES, pH 7.6, 150 mM NaCl, 3 mM EDTA, and 0.05% Polysorbate 20) at concentrations of 300 nM. 150 μL of sample is individually injected sequentially across the immobilized SAs surface and is dissociated for 600 sec at a flow rate of 50 L/min at 25 C. […] The resulting sensorgrams are analyzed using Biacore 8K Insight Evaluation Software (version 2.0.15.12933) to calculate the dissociation rate (kd).
B15 yielded a koff of 0.00021 s⁻¹.
With B8, the koff was 0.011 s⁻¹.
Same read-out and setting: for B9 the value was 0.0039 s⁻¹; for B10, 0.0058 s⁻¹; for B16, 0.0012 s⁻¹.
As for B17, the koff is 9.4e-05 s⁻¹.
Turning to B12, the koff came out at 0.0076 s⁻¹.
The molecule B4 returned a koff of 0.0092 s⁻¹.
On the same count and under the same terms, for B13 the value was 0.0045 s⁻¹; for B18, 0.0028 s⁻¹.
Molecule B19 yielded a koff of 0.00014 s⁻¹.
As to B20, the koff amounted to 0.0025 s⁻¹.
In turn, B6 had a dissociation rate constant (koff) of 0.013 s⁻¹.
For B11, the koff was determined as 0.0074 s⁻¹.

In a further test the target is T1, Cynomolgus monkey serum albumin. Briefly: SPR, SA on chip, VHH 300 nM, 25 C.
Description: as §1, §2
Regarding B15, the koff worked out at 0.00053 s⁻¹.
As to B9, the koff turned out to be 0.015 s⁻¹.
B16 yielded a koff of 0.0032 s⁻¹.
Same read-out and setting: for B17 the value was 0.0006 s⁻¹.
As for B12, the koff was found to be 0.0072 s⁻¹.
Take B13: the koff stood at 0.0073 s⁻¹.
B18 had a koff of 0.014 s⁻¹.
In turn, B19 gave a koff of 0.00072 s⁻¹.
On the same count and under the same terms, for B20 the value was 0.014 s⁻¹.

The next test deals with T2, Mouse serum albumin. The test can be described thus: SPR, SA on chip, VHH 300 nM, 25 C.
Description: as §1, §2
The molecule B15 showed a koff of 0.0043 s⁻¹.
The same measure, in the same setting: the result for B16 reads 0.013 s⁻¹.
B17 showed a koff of 0.0056 s⁻¹.
B13 showed a koff of 0.015 s⁻¹.
For the molecule B18, the koff was 0.01 s⁻¹.
As to B19, the koff is 0.0054 s⁻¹.
In the case of B20, the koff was found to be 0.013 s⁻¹.

The target of a further test is T3, Rat serum albumin. Briefly: SPR, SA on chip, VHH 300 nM, 25 C.
Description: as §1, §2
B15 gave a koff of 0.0033 s⁻¹.
Molecule B16 gave a koff of 0.011 s⁻¹.
B17: the koff amounted to 0.0038 s⁻¹.
Regarding B12, the koff was 0.014 s⁻¹.
In the case of B13, the koff is 0.015 s⁻¹.
In the case of B18, the koff was 0.01 s⁻¹.
Molecule B19 displayed a koff of 0.0053 s⁻¹.
Molecule B20 had a koff of 0.011 s⁻¹.

The target of the next test is T4, Pig serum albumin. The test can be described thus: SPR, SA on chip, VHH 300 nM, 25 C.
Description: as §1, §2
The molecule B15 returned a koff of 0.0057 s⁻¹.
On to B16, for which the koff came out at 0.012 s⁻¹.
The molecule B17 registered a koff of 0.0065 s⁻¹.
Still for that read-out and setting: the result for B13 reads 0.014 s⁻¹; that for B18, 0.011 s⁻¹.
B19 returned a koff of 0.0058 s⁻¹.
On the same count and under the same terms, for B20 the value was 0.01 s⁻¹.

In another test the target is T5, Dog serum albumin. The test can be described thus: SPR, SA on chip, VHH 300 nM, 25 C.
Description: as §1, §2
Molecule B15 had a koff of 0.0017 s⁻¹.
Take B16: the koff is 0.011 s⁻¹.
On to B17, for which the koff turned out to be 0.0021 s⁻¹.
Take B12: the koff worked out at 0.015 s⁻¹.
Molecule B13 returned a koff of 0.014 s⁻¹.
As to B18, the koff is 0.0074 s⁻¹.
As for B19, the koff is 0.0021 s⁻¹.
B20: the koff came out at 0.0081 s⁻¹.
